# Data as given in patent US20140193915, “COMPOSITIONS AND METHODS FOR CUSTOM SITE-SPECIFIC DNA RECOMBINASES” (Monsanto Technology, LLC, published 2014).
# Changes are numbered by the printed parent chain.
# B1: Gin18TALE+1 (dsDNA)
# DNA 1: AGAAGGTATTTATATCCAAAACCATGGTTTACAATATAAATACCTTCT
# DNA 2: B1 DNA 1 with C16T, C17G, A18T, A31T, C32G, A33G
# Tests used:
# [1] = molecular target: T1, sN-TALER N4.2.2 (synthetic); test: cell_activity; E. coli
# T1 chain: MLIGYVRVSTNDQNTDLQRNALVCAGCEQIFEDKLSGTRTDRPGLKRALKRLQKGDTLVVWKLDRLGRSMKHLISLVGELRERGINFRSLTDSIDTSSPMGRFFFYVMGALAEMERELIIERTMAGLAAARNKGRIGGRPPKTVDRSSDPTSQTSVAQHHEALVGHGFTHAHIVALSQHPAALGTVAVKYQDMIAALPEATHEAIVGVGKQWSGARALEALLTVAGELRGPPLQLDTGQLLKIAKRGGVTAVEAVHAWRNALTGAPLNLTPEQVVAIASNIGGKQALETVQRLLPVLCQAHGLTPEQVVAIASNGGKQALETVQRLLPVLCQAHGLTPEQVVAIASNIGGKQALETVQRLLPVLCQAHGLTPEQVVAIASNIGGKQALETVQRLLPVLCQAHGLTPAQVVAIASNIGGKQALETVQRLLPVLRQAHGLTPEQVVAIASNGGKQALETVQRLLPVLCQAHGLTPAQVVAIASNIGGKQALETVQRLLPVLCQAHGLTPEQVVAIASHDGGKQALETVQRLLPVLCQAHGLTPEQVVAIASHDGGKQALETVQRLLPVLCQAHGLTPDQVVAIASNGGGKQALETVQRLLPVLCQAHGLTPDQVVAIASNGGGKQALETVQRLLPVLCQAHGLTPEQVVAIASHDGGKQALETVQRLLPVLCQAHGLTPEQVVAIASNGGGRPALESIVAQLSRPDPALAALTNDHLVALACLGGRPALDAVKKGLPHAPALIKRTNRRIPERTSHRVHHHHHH
# Experimental: (§1) The co-transformed bacteria were plated on media with chloramphenicol, kanamycin, and X-gal then incubated at 37° C. for 18 to 36 hours. Control samples consisted of transformations using the reporter construct alone. Control transformants were similarly plated. The bacterial transformation protocol was either heat shock or electroporation per standard molecular biology techniques.
# (§2) For each of these N-TALER chimera expression constructs, from one to three independent clones were selected for plasmid purification. These N-TALER chimera expression constructs were co-transformed with five of the N-TALER reporter constructs, as indicated in Table 15. […] In contrast to the result for pN-TALER N4.2.2, the chimera sN-TALER N4.2.2, with the same truncation point but a specific recombinase catalytic domain, reporters with 20, 24, or 40 bp of TALER central sequence length were efficiently recombined (score of 1) while reporters with 30 or 50 bp of TALER central sequence length were not recombined (score of 5). For the chimera sN-TALER N4.2, reporters with 20, 24, or 40 bp of TALER central sequence length were efficiently recombined (score of 1); the reporter with 30 bp of TALER central sequence length was poorly recombined (score of 3); and the reporter with 50 bp of TALER central sequence length was not recombined (score of 5). For the chimera pN-TALER N4.2, the recombination efficiency on the reporters tested varied from intermediate (scores of 3 and 4) to none (score of 5). […] In contrast to the result for sN-TALER N3.2, the chimera pN-TALER N3.2, with the same truncation point but a permissive recombinase catalytic domain, recombination efficiency on the reporters tested varied from efficient (scores of 1.5, 2, and 3) to none (score of 5). For both chimeras sN-TALER V.2 and pN-TALER V.2, there was efficient recombination (scores of 1, 1.5, and 2) of the 5 N-TALER reporter constructs tested.
# [2] = molecular target: T2, sN-TALER N4.2 (synthetic); test: cell_activity; E. coli
# T2 chain: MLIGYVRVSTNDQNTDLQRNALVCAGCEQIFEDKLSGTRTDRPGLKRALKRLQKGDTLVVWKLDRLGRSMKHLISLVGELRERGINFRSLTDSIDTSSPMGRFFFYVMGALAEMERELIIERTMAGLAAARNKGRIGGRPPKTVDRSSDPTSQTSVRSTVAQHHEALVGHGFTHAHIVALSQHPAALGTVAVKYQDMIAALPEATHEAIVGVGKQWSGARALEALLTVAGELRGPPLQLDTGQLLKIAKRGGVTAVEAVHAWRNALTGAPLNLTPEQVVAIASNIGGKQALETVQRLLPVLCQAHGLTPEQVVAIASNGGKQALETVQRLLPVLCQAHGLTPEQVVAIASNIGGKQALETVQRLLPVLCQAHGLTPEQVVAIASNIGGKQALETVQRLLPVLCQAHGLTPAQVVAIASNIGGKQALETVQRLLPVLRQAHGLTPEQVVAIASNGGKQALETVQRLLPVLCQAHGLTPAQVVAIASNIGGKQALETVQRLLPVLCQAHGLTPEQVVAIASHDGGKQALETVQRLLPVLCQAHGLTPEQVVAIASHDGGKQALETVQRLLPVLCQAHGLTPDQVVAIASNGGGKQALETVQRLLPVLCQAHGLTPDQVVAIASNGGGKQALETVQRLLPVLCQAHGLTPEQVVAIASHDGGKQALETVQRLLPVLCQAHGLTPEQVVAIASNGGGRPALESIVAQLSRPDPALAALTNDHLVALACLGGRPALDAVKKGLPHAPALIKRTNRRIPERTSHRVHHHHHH
# Experimental: as §1, §2
binder,measurement,setting,value
B1,activity,[1],1 score
same,activity,[2],1 score
